In patent US7067277B1, “Chimeric G proteins and uses thereof” (H. Lundbeck A/S, priority 1999, dated 2006):

T1: Rat GALR1 (Rattus norvegicus, UniProt Q62805)
T1 construct: linearized plasmids or PCR products containing the complete coding region of the genes; expressed in transfected cells; host or cells: Xenopus laevis oocytes (receptor cRNA injected)
T1 sequence (Q62805 1-346): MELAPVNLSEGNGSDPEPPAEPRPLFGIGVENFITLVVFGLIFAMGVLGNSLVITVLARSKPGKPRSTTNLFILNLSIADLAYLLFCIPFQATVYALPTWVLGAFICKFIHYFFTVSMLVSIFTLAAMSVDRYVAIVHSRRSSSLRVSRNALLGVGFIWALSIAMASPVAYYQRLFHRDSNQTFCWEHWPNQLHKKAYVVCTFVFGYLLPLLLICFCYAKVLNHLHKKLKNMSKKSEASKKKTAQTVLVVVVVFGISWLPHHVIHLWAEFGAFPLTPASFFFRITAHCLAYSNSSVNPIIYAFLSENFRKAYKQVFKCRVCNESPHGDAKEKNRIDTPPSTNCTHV

T2: Rat Y1 (Rattus norvegicus, UniProt P21555)
T2 construct: linearized plasmids or PCR products containing the complete coding region of the genes; expressed in transfected cells; host or cells: Xenopus laevis oocytes (receptor cRNA injected)
T2 sequence (P21555 1-382): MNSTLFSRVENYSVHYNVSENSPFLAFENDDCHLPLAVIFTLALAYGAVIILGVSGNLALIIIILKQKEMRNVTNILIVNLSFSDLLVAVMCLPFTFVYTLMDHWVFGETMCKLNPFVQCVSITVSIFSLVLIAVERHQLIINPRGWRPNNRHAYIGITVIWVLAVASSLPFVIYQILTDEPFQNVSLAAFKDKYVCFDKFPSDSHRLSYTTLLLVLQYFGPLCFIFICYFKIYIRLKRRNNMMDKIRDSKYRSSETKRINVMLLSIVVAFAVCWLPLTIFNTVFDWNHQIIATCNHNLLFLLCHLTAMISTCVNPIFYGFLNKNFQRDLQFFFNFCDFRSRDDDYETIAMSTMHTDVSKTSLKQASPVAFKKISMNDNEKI

T3: Rat Y5 (Rattus norvegicus, UniProt Q63634)
T3 construct: linearized plasmids or PCR products containing the complete coding region of the genes; expressed in transfected cells; host or cells: Xenopus laevis oocytes (receptor cRNA injected)
T3 sequence (Q63634 1-445): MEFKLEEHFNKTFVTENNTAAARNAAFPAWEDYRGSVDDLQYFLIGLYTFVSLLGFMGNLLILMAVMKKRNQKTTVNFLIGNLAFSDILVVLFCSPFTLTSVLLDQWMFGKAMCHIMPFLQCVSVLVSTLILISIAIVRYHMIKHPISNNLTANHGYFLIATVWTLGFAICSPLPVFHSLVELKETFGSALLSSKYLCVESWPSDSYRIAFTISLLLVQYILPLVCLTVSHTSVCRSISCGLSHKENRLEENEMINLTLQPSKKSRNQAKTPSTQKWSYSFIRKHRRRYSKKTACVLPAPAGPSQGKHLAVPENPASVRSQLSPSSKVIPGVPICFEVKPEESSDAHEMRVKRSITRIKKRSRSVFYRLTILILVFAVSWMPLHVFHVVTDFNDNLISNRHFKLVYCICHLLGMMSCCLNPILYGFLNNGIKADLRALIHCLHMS


Columns and labels:
Type in all cases: cell-based
[1] = target: T4, Human NPFF1 (Homo sapiens, UniProt Q9GZQ6); test: Cl- current recording in Xenopus oocytes expressing GPCR and chimeric G protein; settings: Xenopus oocytes expressing Human NPFF1 and chimera, 1 μM NPFF, mean ± s.e.m
T4 construct: linearized plasmids or PCR products containing the complete coding region of the genes; expressed in transfected cells; host or cells: Xenopus laevis oocytes (receptor cRNA injected)
T4 sequence (Q9GZQ6 whole entry): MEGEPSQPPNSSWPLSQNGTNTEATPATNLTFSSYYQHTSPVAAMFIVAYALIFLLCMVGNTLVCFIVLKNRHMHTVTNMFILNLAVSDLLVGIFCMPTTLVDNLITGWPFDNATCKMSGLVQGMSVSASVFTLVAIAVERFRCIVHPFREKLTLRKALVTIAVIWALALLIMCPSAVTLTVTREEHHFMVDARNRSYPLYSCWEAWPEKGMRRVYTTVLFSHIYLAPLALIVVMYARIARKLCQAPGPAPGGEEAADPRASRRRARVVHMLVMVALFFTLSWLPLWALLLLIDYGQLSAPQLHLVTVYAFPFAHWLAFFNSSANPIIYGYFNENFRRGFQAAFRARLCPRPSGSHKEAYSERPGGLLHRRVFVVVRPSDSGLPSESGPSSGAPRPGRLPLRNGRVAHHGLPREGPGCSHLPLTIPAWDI
Method: (§1) Oocytes were harvested from Xenopus laevis and injected with mRNA transcripts as previously described (Quick and Lester, 1994; Smith et al., 1997). Receptor and chimeric G protein α subunit RNA transcripts were synthesized using the T7 polymerase (“Message Machine,” Ambion) from linearized plasmids or PCR products containing the complete coding region of the genes. Oocytes were injected with 5–25 ng synthetic receptor RNA and incubated for 3–8 days at 17 degrees. Three to eight hours prior to recording, oocytes were injected with 500 pg chimeric Gα subunit mRNA. Dual electrode voltage clamp (Axon Instruments Inc.) was performed using 3 M KCl-filled glass microelectrodes having resistances of 1–2 MOhm. Unless otherwise specified, oocytes were voltage clamped at a holding potential of −80 mV. During recordings, oocytes were bathed in continuously flowing (1–3 ml/min) medium containing 96 mM NaCl, 2 mM KCl, 1.8 mM CaCl2, 1 mM MgCl2, and 5 mM HEPES, pH 7.5 (ND96). Drugs were applied by local perfusion from a 10 μl glass capillary tube fixed at a distance of 0.5 mm from the oocyte. Experiments were carried out at room temperature. All values are expressed as mean±standard error of the mean.

[2] = target: T5, Human NPFF2 (Homo sapiens, UniProt Q9Y5X5); test: as above; settings: Xenopus oocytes expressing Human NPFF2 and chimera; mean ± s.e.m
T5 construct: linearized plasmids or PCR products containing the complete coding region of the genes; expressed in transfected cells; host or cells: Xenopus laevis oocytes (receptor cRNA injected)
T5 sequence (Q9Y5X5 103-522): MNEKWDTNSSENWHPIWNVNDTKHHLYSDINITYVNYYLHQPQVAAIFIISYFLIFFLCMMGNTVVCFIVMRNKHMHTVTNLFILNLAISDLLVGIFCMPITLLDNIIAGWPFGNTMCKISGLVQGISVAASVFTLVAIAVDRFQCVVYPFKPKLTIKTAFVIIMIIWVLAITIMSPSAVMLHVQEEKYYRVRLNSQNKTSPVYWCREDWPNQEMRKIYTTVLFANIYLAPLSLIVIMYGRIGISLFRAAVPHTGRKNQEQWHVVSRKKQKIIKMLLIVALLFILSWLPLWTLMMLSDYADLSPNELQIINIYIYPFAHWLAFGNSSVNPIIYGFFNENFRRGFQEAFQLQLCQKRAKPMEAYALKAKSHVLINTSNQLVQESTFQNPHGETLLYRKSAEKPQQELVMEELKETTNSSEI
Method: as §1

[3] = target: T6, Rabbit 5HT1D (Oryctolagus cuniculus, UniProt P49145); test: as above; settings: Xenopus oocytes expressing Rabbit 5HT1D and chimera; mean ± s.e.m
T6 construct: linearized plasmids or PCR products containing the complete coding region of the genes; expressed in transfected cells; host or cells: Xenopus laevis oocytes (receptor cRNA injected)
T6 sequence (P49145 whole entry): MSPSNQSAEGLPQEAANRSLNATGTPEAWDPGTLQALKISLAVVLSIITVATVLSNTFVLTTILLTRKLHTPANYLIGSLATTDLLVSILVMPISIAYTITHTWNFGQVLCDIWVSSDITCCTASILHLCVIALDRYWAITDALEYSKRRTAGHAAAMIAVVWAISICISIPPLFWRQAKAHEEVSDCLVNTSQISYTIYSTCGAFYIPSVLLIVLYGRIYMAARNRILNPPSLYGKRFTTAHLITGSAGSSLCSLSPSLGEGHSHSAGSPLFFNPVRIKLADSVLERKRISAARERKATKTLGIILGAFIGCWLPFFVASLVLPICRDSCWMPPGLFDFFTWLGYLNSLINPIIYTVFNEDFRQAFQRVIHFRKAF
Method: as §1

[4] = target: T1, Rat GALR1; test: as above; settings: Xenopus oocytes expressing Rat GALR1 and chimera; mean ± s.e.m
Method: as §1

[5] = target: T2, Rat Y1; test: as above; settings: Xenopus oocytes expressing Rat Y1 and chimera; mean ± s.e.m
Method: as §1

[6] = target: T7, h D1 (Homo sapiens, UniProt P21728); test: Calcium mobilization (FLIPR, Fluo-3) in transfected COS-7 cells
T7 construct: expressed in transfected cells; host or cells: COS-7
T7 sequence (P21728 whole entry): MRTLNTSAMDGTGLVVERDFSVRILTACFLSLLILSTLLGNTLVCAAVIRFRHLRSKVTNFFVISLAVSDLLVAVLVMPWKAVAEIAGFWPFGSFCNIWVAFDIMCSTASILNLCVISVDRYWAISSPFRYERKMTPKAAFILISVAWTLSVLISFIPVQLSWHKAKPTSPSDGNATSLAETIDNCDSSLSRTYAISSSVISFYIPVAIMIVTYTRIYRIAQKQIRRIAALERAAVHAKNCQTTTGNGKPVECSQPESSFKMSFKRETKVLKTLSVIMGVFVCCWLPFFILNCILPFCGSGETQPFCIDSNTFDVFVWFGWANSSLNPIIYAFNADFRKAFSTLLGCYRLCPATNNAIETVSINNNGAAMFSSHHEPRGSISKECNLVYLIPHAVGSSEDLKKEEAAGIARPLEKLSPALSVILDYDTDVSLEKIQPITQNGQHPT
Method: COS-7 cells were cultured in 225 cm^2 flasks in Dulbecco's Modified Eagle Medium (DMEM) with supplements (10% bovine calf serum, 4 mM glutamine, 100 units/ml penicillin and 100 μg/ml streptomycin) at 37° C., 5% CO2. Stock plates of COS-7 cells were trypsinized and split 1:6 every 3–4 days.
For evaluating the function of a single chimeric G protein, the standard cDNA transfection ratio was 1:1 (10 μg GPCR cDNA and 10 μg chimeric G protein cDNA). For evaluating the function of a mixture of chimeric G proteins, the standard cDNA transfection ratio was 8:1:1 (16 μg GPCR cDNA, 2 μg Gαq/z cDNA, 2 μg Gαq/s cDNA).
Twenty four hours after transient transfection, COS-7 cells were seeded into 96-well black wall microtiter plates coated with poly-D-lysine for assay the following day. […] After excess dye was discarded, cells were washed in assay buffer and layered with a final volume equal to 100 μl/well. Basal fluorescence was monitored in a fluorometric imaging plate reader (FLIPR™, Molecular Devices) with an excitation wavelength of 488 nm and an emission range of 500 to 560 nm. Laser excitation energy was adjusted so that basal fluorescence readings were approximately 10,000 relative fluorescent units. Cells were stimulated with agonists diluted in assay buffer (50 μl), and relative fluorescent units were measured at defined intervals (exposure=0.4 sec) over a 3 min period at room temperature. Maximum change in fluorescence was calculated for each well. Concentration-response curves derived from the maximum change in fluorescence were analyzed by nonlinear regression (Hill equation).

[7] = system: GALR1, Y1, NPFF2, and 5HT1D; test: Cl- current recording in Xenopus oocytes, C. elegans versus human chimera
Method: as §1

[8] = target: T3, Rat Y5; test: Cl- current recording in Xenopus oocytes expressing GPCR and chimeric G protein; settings: Xenopus oocytes expressing Rat Y5 and chimera; mean ± s.e.m
Method: as §1

Molecule | Response amplitudes (nA) in oocytes [1] [nA] | Response amplitudes (nA) in oocytes ([1]; listed as CGαq/z5) [nA] | Response amplitudes (nA) in oocytes [2] [nA] | Response amplitudes (nA) in oocytes [3] [nA] | Response amplitudes (nA) in oocytes [4] [nA] | Response amplitudes (nA) in oocytes [5] [nA] | maximal signal ([6]; human D1 receptor in COS-7, dopamine 0.3 nM to 100 μM concentration-response curve, example shown, FIG. 4B) | MAXIMAL SIGNAL (FLUORESCENCE UNITS) ([6]; human D1 receptors in COS-7, 10 μg chimera cDNA and 10 μg receptor cDNA, 100 μM dopamine, Table 9 parallel comparison, mean of two experiments) [fluorescence units] | increase in response over currents from oocytes expressing the human version of the chimera [7] | Response amplitudes (nA) in oocytes [8] [nA] | MAXIMAL SIGNAL (FLUORESCENCE UNITS) ([6]; h D1 + chimera in COS-7, agonist DA, max 100 μM) [fluorescence units]
cGαq/z5: chimeric Gα subunit: C-terminal final 5 amino acids of C. elegans Gαq replaced with those of hGαz (SEQ ID NO: 1) (protein, C. elegans) MACCLSEEAREQKRINQEIEKQLQRDKRNARRELKLLLLGTGESGKSTFIKQMRIIHGQGYSEEDKRAHIRLVYQNVFMAIQSMIRAMDTLDIKFGNESEELQEKAAVVREVDFESVTSFEEPYVSYIKELWEDSGIQECYDRRREYQLTDSAKYYLSDLRRLAVPDYLPTEQDILRVRVPTTGIIEYPFDLEQIIFRMVDVGGQRSERRKWIHCFENVTSIMFLVALSEYDQVLVECDNENRMEESKALFRTIITYPWFTNSSVILFLNKKDLLEEKILYSHLADYFPEYDGPPRDPIAAREFILKMFVDLNPDADKIIYSHFTCATDTENIRFVFAAVKDTILQHNLKYIGLC | 1258±159 | 1258 ± 159 | 1121 ± 261 | 150 ± 105 | 91 ± 38 | 1549 ± 168 | 14,723 fluorescence units | 4832 | 2–3 fold | – | –
cGαq/z9: C. elegans Gαq with Gαz portion of the C-terminal tail extended to 9 amino acids (SEQ ID NO: 2) (protein, C. elegans) MACCLSEEAREQKRINQEIEKQLQRDKRNARRELKLLLLGTGESGKSTFIKQMRIIHGQGYSEEDKRAHIRLVYQNVFMAIQSMIRAMDTLDIKFGNESEELQEKAAVVREVDFESVTSFEEPYVSYIKELWEDSGIQECYDRRREYQLTDSAKYYLSDLRRLAVPDYLPTEQDILRVRVPTTGIIEYPFDLEQIIFRMVDVGGQRSERRKWIHCFENVTSIMFLVALSEYDQVLVECDNENRMEESKALFRTIITYPWFTNSSVILFLNKKDLLEEKILYSHLADYFPEYDGPPRDPIAAREFILKMFVDLNPDADKIIYSHFTCATDTENIRFVFAAVKDTILQNNLKYIGLC | 1449 ± 398 | – | – | 34 ± 12 | – | 300 ± 177 | – | – | – | 65 ± 34 | 13099
